Reference: paper PMC8089094, “Mispair-bound human MutS–MutL complex triggers DNA incisions and activates mismatch repair” (Cell Research, 2021)
Each block holds one molecule with its values, some of them ahead of it.

How the values were obtained:
LacI = assay: EMSA; conditions: IPTG; EMSA: 10 mM HEPES pH 7.5, 110 mM KCl, 5 mM MgCl2, 1 mM DTT, 200 ug/mL BSA, 1 pmol cold homoduplex, +/- 2 mM ATP, 20 min on ice; sucrose gradient: 10 mM …
[1] = target: T1, human MutSα (MSH2·MSH6 heterodimer), wild type (human, UniProt P43246 1-934; P52701 1-1360); assay: native gel or EMSA; with ATP (2 mM); 0.1 pmol 32P-labeled 100-bp duplex with a G–T mismatch, 2 pmol MutSα or MutLα; more slowly migrating MutSα–MutLα–DNA complex; 10 mM HEPES pH 7.5, 5 mM MgCl2, 1 mM DTT, 110 mM KCl, 20 min on ice; 4% non-denaturing polyacrylamide; conditions: both partners purified
T1 construct: MSH2 subunit of human MutSα; MSH6 subunit of human MutSα; also called WT MutSα; MSH2WT·MSH6WT; source: insect cells, purified to homogeneity
T1 sequence (P43246 whole entry, chain 1 of 2): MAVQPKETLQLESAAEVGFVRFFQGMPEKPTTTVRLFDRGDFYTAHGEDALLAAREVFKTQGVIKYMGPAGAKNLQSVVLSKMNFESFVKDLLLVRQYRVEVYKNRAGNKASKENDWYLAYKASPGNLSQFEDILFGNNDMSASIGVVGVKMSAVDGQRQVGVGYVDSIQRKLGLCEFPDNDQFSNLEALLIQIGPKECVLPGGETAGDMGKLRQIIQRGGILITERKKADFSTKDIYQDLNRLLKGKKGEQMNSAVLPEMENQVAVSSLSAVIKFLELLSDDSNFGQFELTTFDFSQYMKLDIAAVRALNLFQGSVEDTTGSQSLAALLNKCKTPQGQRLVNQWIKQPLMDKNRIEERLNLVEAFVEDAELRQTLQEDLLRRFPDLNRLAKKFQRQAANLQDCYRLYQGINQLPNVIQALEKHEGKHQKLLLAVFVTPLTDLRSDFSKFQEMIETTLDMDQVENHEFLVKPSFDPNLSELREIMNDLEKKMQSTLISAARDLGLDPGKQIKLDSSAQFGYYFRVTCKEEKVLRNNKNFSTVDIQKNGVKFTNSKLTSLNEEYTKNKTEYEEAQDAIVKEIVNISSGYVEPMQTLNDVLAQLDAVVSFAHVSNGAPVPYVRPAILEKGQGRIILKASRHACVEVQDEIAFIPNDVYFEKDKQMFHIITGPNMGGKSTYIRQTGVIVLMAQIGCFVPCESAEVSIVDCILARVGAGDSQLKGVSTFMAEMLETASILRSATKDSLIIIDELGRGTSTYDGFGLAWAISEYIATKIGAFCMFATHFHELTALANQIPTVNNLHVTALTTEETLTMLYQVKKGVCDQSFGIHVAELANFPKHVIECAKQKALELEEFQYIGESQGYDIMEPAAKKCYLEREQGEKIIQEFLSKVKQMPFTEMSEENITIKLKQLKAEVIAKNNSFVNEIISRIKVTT
T1 sequence (P52701 whole entry, chain 2 of 2): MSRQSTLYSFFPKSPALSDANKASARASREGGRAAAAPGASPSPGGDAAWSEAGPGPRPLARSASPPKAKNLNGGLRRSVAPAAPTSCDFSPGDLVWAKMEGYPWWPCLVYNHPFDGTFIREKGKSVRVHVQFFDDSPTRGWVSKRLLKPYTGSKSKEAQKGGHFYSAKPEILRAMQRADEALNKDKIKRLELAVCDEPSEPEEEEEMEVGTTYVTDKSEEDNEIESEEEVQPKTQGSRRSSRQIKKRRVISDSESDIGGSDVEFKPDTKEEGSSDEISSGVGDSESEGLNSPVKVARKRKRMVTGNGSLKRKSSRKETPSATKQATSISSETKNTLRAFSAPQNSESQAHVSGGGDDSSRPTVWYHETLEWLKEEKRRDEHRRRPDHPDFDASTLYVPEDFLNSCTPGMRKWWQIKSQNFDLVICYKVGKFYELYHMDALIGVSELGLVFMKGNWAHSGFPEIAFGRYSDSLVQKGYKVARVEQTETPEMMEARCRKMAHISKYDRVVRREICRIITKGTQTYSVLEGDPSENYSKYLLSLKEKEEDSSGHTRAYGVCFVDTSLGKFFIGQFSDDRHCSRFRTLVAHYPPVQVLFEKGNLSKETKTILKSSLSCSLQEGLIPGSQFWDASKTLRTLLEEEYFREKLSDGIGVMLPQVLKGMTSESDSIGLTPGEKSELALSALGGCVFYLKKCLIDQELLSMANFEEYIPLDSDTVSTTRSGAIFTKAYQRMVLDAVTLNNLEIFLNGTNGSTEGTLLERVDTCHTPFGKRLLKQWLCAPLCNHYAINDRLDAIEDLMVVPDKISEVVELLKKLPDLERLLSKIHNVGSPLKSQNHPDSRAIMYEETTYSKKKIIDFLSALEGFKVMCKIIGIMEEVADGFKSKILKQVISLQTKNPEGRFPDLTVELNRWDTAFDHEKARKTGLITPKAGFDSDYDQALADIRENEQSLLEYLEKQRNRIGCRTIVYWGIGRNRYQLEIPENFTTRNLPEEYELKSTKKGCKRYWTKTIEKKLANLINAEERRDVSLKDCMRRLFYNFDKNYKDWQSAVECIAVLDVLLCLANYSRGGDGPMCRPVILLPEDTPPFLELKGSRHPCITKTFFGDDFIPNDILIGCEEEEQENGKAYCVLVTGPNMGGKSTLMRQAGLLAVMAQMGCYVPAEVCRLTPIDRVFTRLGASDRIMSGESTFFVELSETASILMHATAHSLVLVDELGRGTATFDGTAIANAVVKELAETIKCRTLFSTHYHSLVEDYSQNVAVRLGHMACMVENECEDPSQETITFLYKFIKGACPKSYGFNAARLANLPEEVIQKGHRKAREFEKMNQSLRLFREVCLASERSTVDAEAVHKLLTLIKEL

Molecule: 282-bp G-T heteroduplex with LOS I and LOS II
binding signal (% of binding released) (LacI): > 70

stoichiometry N [1]: > 1 molecule of MutLα in the MutSα–MutLα complex
B1: human MutLα (MLH1·PMS2 heterodimer), wild type (complex)
chain 1: MSFVAGVIRRLDETVVNRIAAGEVIQRPANAIKEMIENCLDAKSTSIQVIVKEGGLKLIQIQDNGTGIRKEDLDIVCERFTTSKLQSFEDLASISTYGFRGEALASISHVAHVTITTKTADGKCAYRASYSDGKLKAPPKPCAGNQGTQITVEDLFYNIATRRKALKNPSEEYGKILEVVGRYSVHNAGISFSVKKQGETVADVRTLPNASTVDNIRSIFGNAVSRELIEIGCEDKTLAFKMNGYISNANYSVKKCIFLLFINHRLVESTSLRKAIETVYAAYLPKNTHPFLYLSLEISPQNVDVNVHPTKHEVHFLHEESILERVQQHIESKLLGSNSSRMYFTQTLLPGLAGPSGEMVKSTTSLTSSSTSGSSDKVYAHQMVRTDSREQKLDAFLQPLSKPLSSQPQAIVTEDKTDISSGRARQQDEEMLELPAPAEVAAKNQSLEGDTTKGTSEMSEKRGPTSSNPRKRHREDSDVEMVEDDSRKEMTAACTPRRRIINLTSVLSLQEEINEQGHEVLREMLHNHSFVGCVNPQWALAQHQTKLYLLNTTKLSEELFYQILIYDFANFGVLRLSEPAPLFDLAMLALDSPESGWTEEDGPKEGLAEYIVEFLKKKAEMLADYFSLEIDEEGNLIGLPLLIDNYVPPLEGLPIFILRLATEVNWDEEKECFESLSKECAMFYSIRKQYISEESTLSGQQSEVPGSIPNSWKWTVEHIVYKALRSHILPPKHFTEDGNILQLANLPDLYKVFERC
chain 2: MERAESSSTEPAKAIKPIDRKSVHQICSGQVVLSLSTAVKELVENSLDAGATNIDLKLKDYGVDLIEVSDNGCGVEEENFEGLTLKHHTSKIQEFADLTQVETFGFRGEALSSLCALSDVTISTCHASAKVGTRLMFDHNGKIIQKTPYPRPRGTTVSVQQLFSTLPVRHKEFQRNIKKEYAKMVQVLHAYCIISAGIRVSCTNQLGQGKRQPVVCTGGSPSIKENIGSVFGQKQLQSLIPFVQLPPSDSVCEEYGLSCSDALHNLFYISGFISQCTHGVGRSSTDRQFFFINRRPCDPAKVCRLVNEVYHMYNRHQYPFVVLNISVDSECVDINVTPDKRQILLQEEKLLLAVLKTSLIGMFDSDVNKLNVSQQPLLDVEGNLIKMHAADLEKPMVEKQDQSPSLRTGEEKKDVSISRLREAFSLRHTTENKPHSPKTPEPRRSPLGQKRGMLSSSTSGAISDKGVLRPQKEAVSSSHGPSDPTDRAEVEKDSGHGSTSVDSEGFSIPDTGSHCSSEYAASSPGDRGSQEHVDSQEKAPKTDDSFSDVDCHSNQEDTGCKFRVLPQPTNLATPNTKRFKKEEILSSSDICQKLVNTQDMSASQVDVAVKINKKVVPLDFSMSSLAKRIKQLHHEAQQSEGEQNYRKFRAKICPGENQAAEDELRKEISKTMFAEMEIIGQFNLGFIITKLNEDIFIVDQHATDEKYNFEMLQQHTVLQGQRLIAPQTLNLTAVNEAVLIENLEIFRKNGFDFVIDENAPVTERAKLISLPTSKNWTFGPQDVDELIFMLSDSPGVMCRPSRVKQMFASRACRKSVMIGTALNTSEMKKLITHMGEMDHPWNCPHGRPTMRHIANLGVISQN
notes: MLH1 subunit of human MutLα; PMS2 subunit of human MutLα; also called WT MutLα; source: insect cells, purified to homogeneity
